In the DeepSol protein solubility set:

experiment: soluble on expression in E. coli; label from the status in PepcDB or PDB records

Sequence	soluble on expression in E. coli
MSLVSEAHIYLQKTNAIQQSSADLISILAGSGGNRDLLLLRDHLLSIDMMKLLDKDLHLREHFSDRRRDLLSRLWSKDAPDERFQRYYLSRIEVTYDDYAQVLSITAQAYSPEMARAIAQMMVTEGEKYMNALDHKTAHDQVSYIEQQVSALGVRMVAARKAVLAYQDAHGLVSPGNAVESISAIASRLDAELSDLMTKRAALAGYLTPAAPDIVQLDSQIAAVKSQLQAERQRVAAKRGGGLNAVAEEQGRLEAEAALADDMYKTALVALETARVESTRKIKSVAVLQSANLPVYPLEPRRIYNILEGHHHHHH	not soluble
YDKEFGGFGGAPKFPMAMNLSFLLRYGQRYGDGEAVAMATDTLTAMAQGGIWDHLGGGFHRYTVDGRWLVPHFEKMLYDQALCTLALVEAAQVTGNSVFRELAKETCGFVLRELSAPAGGFYSALDADSEGREGACYLWTPAQVRDILGVADGELFCRLYAVTAWGNFEGANVLHLPLAPDAFARDEGVDPLRLQEKIAQWHILLLEARERRPRPFRDEKIITGWNGLMIAALARTFLICGDELLLEGAERAVRRVCIDLRTPAGRLVRSCHRGEASGPGFLEDYAFFIRGLLELHEATLDPRHLALARSLAHDMLRLFGDSGGGLFDTGSDAETILVRGKG	not soluble
MQKSDEVTEKFKRYCNQLEKYGQTENVHSPVMAMLRRKGRKQLIEIMKRDGDCTSSINKLWIVGYYHPFQFFIRDKEKNMAIAVLLTMFCGELQEMLSLPDDKYPALWNMYIGDFHRYMPDEEIQKCLAVGYYSRAIDLDPNQGRAFHVLAGLRADLNVAQKLRLMILGQLADAPYKKGTELLEYLKFPQKESTDKLMVDFVIWALNEKSKRMDYQMTGIKIVNEFKAEIEQKLEFDWSLIMSTCRLASKLAMKKFGFQQFYNCFDTISTLYITIYSRTISSKCLLAEAISWISDSAEILGHLDEQKNEPHFQKLSVFAKTKWNELNDLVMNHINSVFTSMSLTINPSISMTSFLLNGPISEPNVEFLSQLINYLVSVEFPPMEIIHDREESGPLLRRINQSEQKRLDIQIKTQNDEVNREDWRPVYVLMDYDVIVDKIRIALKIWDIDDFICILPSTVLDELDYQKTKNRAVRPVIRALMELQAEGKIVLKKCDNERSCAEQLVQSARRSAEDHKHIVAFLCKNPSEQKEMEGVTFYDIDQFYMKYLE	not soluble
MSEELSGVIIVLHKELSCRKEITDLQEISIALPDLMLSPKSKIVSDPASSKIDLNDRTTCSAEPNLFFVIFLSKNLNFSSKVFLSAVNNKSFSIQTRIT	not soluble
VRNSPDLLDEIRAGITVHARPDLQTPIDGLLLSKVTAESAAPEYSLTEPLLVIMTQGGKRLLLGDRLYEYRAGQCLVVTASVPVTGHYIDISEGAPSLAMGLVLRPAAIAALVLQAPTERWSRGAAGVPAIETGDADVHLLDAAARMLRLLDHPADAPVLAPLIEQEILWRLLTGPHGSTIRQIGMADSDLAHVSRAIHWIRDNYSEPMRIDDLARLSSMSASAFHRHFRAVTAMSPLQYQKRIRLQHARSMLVAHPGDVAGVGHHVGYDSPSQFNREYRRLFGASPGKDAHGLRGNTALSDTGPLP	not soluble
MIVSFMVAMDENRVIGKDNNLPWRLPSELQYVKKTTMGHPLIMGRKNYEAIGRPLPGRRNIIVTRNEGYHVEGCEVAHSVEEVFELCKNEEEIFIFGGAQIYDLFLPYVDKLYITKIHHAFEGDTFFPEMDMTNWKEVFVEKGLTDEKNPYTYYYHVYEKQQLEHHHHHHHH	soluble
MGSDKIHHHHHHMIIDRLFDSVEKKGHVCLGLDTDITYVPEEFCKKFNSIEDAIFNFNKKIIDATLDVVSCYKVQIAYYEAYGLKGLLAYKRTLEYLREKKAIAIADIKRGDIAKTAEMYAKAHFEGDFEADFVTLNPYMGLDGIEPYMPYIEKMEKGLFILLRTSNKGAYDIQYIKTQGGKNVYDEVGEKIYDLGQKATGRSKYSSIGAVVGCTHVEEGVEIRNKFKNMFFLIPGYGAQGGTAKEVSLYLREGNGGVVNSSRGILLAYKKEENGEKIFDECARLAAINMRDEIRKTL	not soluble
MSDTQQVPAIVILGQGALDTARRVQARYPGALVHGLAGRVEADRSYTDFGDTLRELYCADRPIVALCAAGIVIRSLAPLLQRKGAEPPVLALAEDGSAVVPLLGGLAGVNRLAREIGEVLAVAPAITTSGELRFGTCVLNPPAGYVLADLEQGKRFVADLLGGQPVRVEGAADWLDAARLPRDPEAALAIHVTPSARAPRAEELLIHPRCVLAALEPADAAADAVRQALVDAGLAAAALGGLLADSARMADPRLQAAADALGVPLRFLPQADPAARLRQALPAAEQVGDRLAVAAAPLAMDRIGQRRGRLTVIGLGPGCAELMVPAARRALDEAEDILGYQTYVDMAGPFRAGQVLHGSDNREELQRARHAFELAATGRAVVLVSSGDPGVFAMAAAVLEALHGAGEPAWDAVELRIFPGVSAALATAARAGAPLGHDFCVLSLSDNLKPWEVIERRLDLAGAADLAMAFYNPISRARPWQLGRALEIVARHRSPQTLVVLGRDIGRPGERLLRTTLGELRAEQVDMRTLVIIGSSTTRSFPRADGEAWVYTPRWYPSE	not soluble
MGSDKIHHHHHHMERSWTINGRFLAQPLTGVQRYAFEIVRALDELIVNQPLLASRLKIELLVPRDAKVPSLRAISTRAIAIAPMHGHLWEQAALAAHVRGGLLSFCNTGPLSVRKQILCIHDVNTRTYPQSYSLPFRLLYRTLLPALGRRVAAVATVSRYSAGELVRHRICGPDKITVIPNGHEHAASWKPRHSQRTRAVAGRDTIVVIGSAIAHKNTGLIIGMAERLAAVGLRIAVVGMSDARVYRTSGRKESASNVTWLGRLSDEELAALLQDCLCLAFPSFIEGFGLPPLEAMAIGCPIVVSNRASLPEICGEAALYASPNDAEAWFDRFMRVRNMPDVRDEMIGIGRMQASNFQWKASASRYLDIMAVLDGMSKPSGGPVAVSIA	not soluble
MAEEQQNSDQSNGGNVIPTPEEVATFLHKTVEEGGWEKCWEEEITPWDQGRATPLIVHLVDTSSLPLGRALVPGCGGGHDVVAMASPERFVVGLDISESALAKANETYGSSPKAEYFSFVKEDVFTWRPTELFDLIFDYVFFCAIEPEMRPAWAKSMYELLKPDGELITLMYPITDHVGGPPYKVDVSTFEEVLVPIGFKAVSVEENPHAIPTRKGKEKLGRWKKINLEHHHHHH	soluble
MSLTRLLIRDFRNIETADLALSPGFNFLVGANGSGKTSVLEAIYTLGHGRAFRSLQIGRVIRHEQEAFVLHGRLQGEERETAIGLTKDKQGDSKVRIDGTDGHKVAELAHLMPMQLITPEGFTLLNGGPKYRRAFLDWGCFHNEPGFFTAWSNLKRLLKQRNAALRQVTRYEQLRPWDKELIPLAEQISTWRAEYSAGIAADMADTCKQFLPEFSLTFSFQRGWEKETEYAEVLERNFERDRQLTYTAHGPHKADLRIRADGAPVEDTLSRGQLKLLMCALRLAQGEFLTRESGRRCLYLIDDFASELDDERRGLLASRLKATQSQVFVSAISAEHVIDMSDENSKMFTVEKGKITD	soluble
VVQGTVKPHASFNSREDAETLRKAMKGIGTDEKSITHILATRSNAQRQQIKTDYTTLFGKHLEDELKSELSGNYEAAALALLRKPDEFLAEQLHAAMKGLGTDKNALIDILCTQSNAQIHAIKAAFKLLYKEDLEKEIISETSGNFQRLLVSMLQGGRKEDEPVNAAHAAEDAAAIYQAGEGQIGTDESRFNAVLATRSYPQLHQIFHEYSKISNKTILQAIENEFSGDIKNGLLAIVKSVENRFAYFAERLHHAMKGLGTSDKTLIRILVSRSEIDLANIKETFQAMYGKSLYEFIADDCSGDYKDLLLQITGH	soluble
GPGSMAAGNSISVKVDVPSQVKGQGTLEMSYYIYPITMRLPGFMSDARFNRRYTDFETLRGQLCATYWYCIVPPIPEKESVQDKLGKLPRMVASAKETTASEGDLLEYRRISLRRFLQRLAYHPILGKSDLLQKFTNDNEWRQCIRDPVKPPR	not soluble
